Experiment: label from the status in PepcDB records

Sequence	protein production
MQNYGRLFELVPGKLELFKKLQLLTEQFKNYCLLSRNFEAANTVFGQIEEIYSGILKKEPGHILVSAHLLFLYETSADLYTKLGKIEKAEESYLQALDFLSKKQRASPGNTTYVRQQGKVYRMLGRAFYEAGDSGKAAQYAGKALEILRELAGKNPEDLHYQYEISDDFTGLGKLFEDIGDIERAKECHMQEINIYRNIHERDPEDEVSEANIAATLDRIGHLYAGKGETETAKQYYEQGLEAYEKLSESYPEDIDHEVGIANTLGYIGKQYSDPEPETALKYYKKALGILEDVVQTFPDVPVYKEDLIQTLGYLESLASGQKQYENAILYRERITELSRQLASENPENFDYKKELAISFKHMGLLYEKAEKHELAKQQYSKSADVFRQVLQDENEKDLMKGLLALDLQKQATILIHEKNYGLAKEYLALLRDYYEALYEKDPEKPENWKAVCEIRTLCGILHKSMGNYDAAIQIYKSVFSILHKHPVSDPDNPDYQSIIGVLYTQLGIAYHLADEYDKSKEAFEKSIPINTRLLDEETENFLHMGDMAVALAEYSKLLTSMGMKKEAEEYAAKADEIKEKIMKKFRFDEYTVEDGDKKAL	failed
MQNYKSGELALLDVPVPGCKPGGVLVRTAYSLISTGTELMKVSEAGMSMLGKARSRPDQVAKVVQSVATNGVPATYRKVMGKLDSYTPLGYSLCGVVEQVGEGIDDVKAGDLVACAGNEHALHAELNWVPRNLYAPVPDGLAARDAAFGTVGSIALQGVRQGESRLGETALVIGLGLIGQLVVQLLVASGVRVVGADPDAERCELAERLGAAACGDPASPAVESAVVELTDGHGVDQVYLAAGGGSNQPVELAARLCRDRGRVVDIGKCRLDLPWNAYYEKELDVRFSRSYGPGRYDPEYELEGRDYPIGYVRWTERRNLACFLDLVARGRVDVAPLITRTADFDDAVETYRSLQDGALKAVAVLFRYPGQPDAEAPAGAPAVTVPGVRRGAGAAAPARAARTPVRLAFVGAGNYATSMLLPHLARREGVELSTVVTTTALSAANAQRKFGFGEATTDLDAVLGDASVDAVFVVTRHSSHAELTRKALLAGKAVFVEKPLALTGEELTGVLAAVEESGNDRVQVGFNRRFAPLLQEARKRFGARTGPASLRYLVNAGRLDHGSWYLQQGTEGSRFAGEGGHFVDTASWLLGADPVSVYALAPSSNEDLQVVLGYPDGSTATLSYVTTGAAGFPKETLDLVADGKVLQLDDFVRSSVYDGRKRWVSSRLPKARDKGQSAELAAFVRAVRTGGPMPVPLESLVATTAATLAVRTALAAGAPVGLAEAR	failed
MQPIDRAQAQQRANDILVFQRELQRLDQEQAFRLEPAQARQLADYHLALLDSYRDRFDIDHDLRSQQLSLGMRVASFFGALAFAASVFLLFYRFWGLFPTVAQVAILIGSAFAAFFATLWVQAKDASGYFSKLAAMVAFACFVLDLTMLGQIFNVTPSDLALVPWALYALLLAYLCNARLLLAAAILCVMGFIAARVGTWGGGYWLSVGERPENFFPAAALIFAVPLCFDQRNFSGFAVIYRVFALLGLFLPMLVLANWGSGSYLALPSALIEGLYQVAGFVAAALVIWLGARRNWADVSNTGITFFVIFLYTKFFDWWWEAMPKYLFFLVLGLSALLILLVLRRLRTPLGIAARTDA	failed
MQPLVSTVLVPSQGIPLCCNEICLKSLQKEVAMPLKDLLIALVVIVAWGVNFVVIKVGLDGLPPMLLGALRFLLVAFPAILLVRRPKLPWRWLIAYGATISLGQFAFLFQAMYSGMPPGLASLILQSQAFFTLGFAALFLGERLRLASVLGLLVAAGGLALIGSEDGGHVPMLALVLTLCGGAMWGLGNIITRRFGSVDLVALVIWGGLIPPLPFLALSWWLEGPERIGHALANISWSSVLALAYLAFVATMLGYSLWSKLLSRHPAGKVAPFSLLVPVIGLSSSALLLGERLTATQGWGALLVMAGLLVNVFGARIGQRLRAANA	failed
MQPLVSVLICAYNVEKYFAQSLAAVVNQTWRNLDILIVDDGSTDGTPAIARRFQEQDGRIRIISNPRNLGFIASLNIGLDELAKSGGGGEYIARTDADDIASPGWIEKIVGEMEKDRSIIAMGAWLEVLSEENNKSVLAAIARNGAIWDKPTRHEDIVAVFPFGNPIHNNTMIMRRSVIDGGLRFDPAYIHAEDYKFWYEAGKLGRLAYYPEALVKYRFHQDQTSSKYNLQQRRTAWKIKEEIRAGYWKAAGIAVGADCLNYGLLKSTAYALYEKALSGQDIGCLRLFLYEYFLSLEKYSLTDLLDFLTDRVMRKLFAAPQYRKILKKMLRPWKYRSYLEHHHHHH	failed
MQPYEKYLKLNSQKLRADQTDTERKLWQRINRDQLLGFRFNRQKPLLSYIVDFYCAKTKLIIELDGSQHYKPDYQEKDALRDAELNSLGFTVMRFSNDEVMREIEAVVEQIYLFLENVRTD	failed

— a protein production outcome set (Wang et al. 2014)
